Tests used:
HLA-A*11:01 = assay: IEDB peptide-MHC binding, cellular MHC/competitive/fluorescence; ≥ and ≤ were set here for values at or beyond the usual limits of such assays
HLA-A*02:01 [1] = assay: IEDB peptide-MHC binding, purified MHC/competitive/radioactivity; ≥ and ≤ were set here for values at or beyond the usual limits of such assays
HLA-A*02:02 [2] = assay: as above
HLA-A*02:03 [3] = assay: as above
HLA-A*02:06 [4] = assay: as above
HLA-A*03:01 = assay: as above; details: source organism: Hepatitis B virus
HLA-A*31:01 [5] = assay: as above; details: source organism: Hepatitis B virus
HLA-A*68:01 [6] = assay: as above
HLA-A*68:02 [7] = assay: as above
HLA-A*01:01 = assay: IEDB peptide-MHC binding, cellular MHC/competitive/fluorescence; ≥ and ≤ were set here for values at or beyond the usual limits of such assays; details: source organism: Vaccinia virus WR
HLA-A*02:01 [8] = assay: as above; details: source organism: Vaccinia virus WR
HLA-A*02:02 [9] = assay: as above
HLA-A*02:03 [10] = assay: as above
HLA-A*02:06 [11] = assay: as above
HLA-A*23:01 [12] = assay: as above; details: source organism: Vaccinia virus WR
HLA-A*24:02 [13] = assay: as above; details: source organism: Vaccinia virus WR
HLA-A*26:01 = assay: as above; details: source organism: Vaccinia virus WR
HLA-A*29:02 = assay: as above; details: source organism: Vaccinia virus WR
HLA-A*30:02 [14] = assay: as above; details: source organism: Vaccinia virus WR
HLA-A*68:01 [15] = assay: as above; details: source organism: Hepatitis B virus
HLA-A*68:02 [16] = assay: as above
HLA-A*23:01 [17] = assay: IEDB peptide-MHC binding, purified MHC/competitive/radioactivity; ≥ and ≤ were set here for values at or beyond the usual limits of such assays; details: source organism: Vaccinia virus WR
HLA-A*24:02 [18] = assay: as above; details: source organism: Vaccinia virus WR
HLA-A*31:01 [19] = assay: IEDB peptide-MHC binding, cellular MHC/competitive/fluorescence; ≥ and ≤ were set here for values at or beyond the usual limits of such assays
HLA-A*33:01 = assay: as above; details: source organism: Mammarenavirus lassaense
HLA-A*30:02 [20] = assay: IEDB peptide-MHC binding, purified MHC/competitive/radioactivity; ≥ and ≤ were set here for values at or beyond the usual limits of such assays; details: source organism: Vaccinia virus WR
[21] = source organism: Hepatitis B virus
[22] = source organism: Vaccinia virus WR
[23] = source organism: Mammarenavirus lassaense

Sequence | IC50 (HLA-A*11:01; [21]) [µM] | IC50 (HLA-A*02:01 [1]; [21]) [µM] | IC50 (HLA-A*02:02 [2]; [21]) [µM] | IC50 (HLA-A*02:03 [3]; [21]) [µM] | IC50 (HLA-A*02:06 [4]; [21]) [µM] | IC50 (HLA-A*03:01) [µM] | IC50 (HLA-A*31:01 [5]) [µM] | IC50 (HLA-A*01:01) [µM] | IC50 (HLA-A*26:01) [µM] | IC50 (HLA-A*29:02) [µM] | IC50 (HLA-A*30:02 [14]) [µM] | IC50 (HLA-A*68:01 [15]) [µM] | also measured
FLFILLLCLI | 9.73 | 0.135 | 0.956 | 1.98 | 0.934 | 0.716 | 0.215 | – | – | – | – | – | IC50 (HLA-A*68:01 [6]; [21]): 3.69 µM; IC50 (HLA-A*68:02 [7]; [21]): 4.5 µM
EQRRSTIFDI | – | – | – | – | – | – | – | 17.7 | ≥ 70 | ≥ 70 | ≥ 70 | – | IC50 (HLA-A*02:01 [8]): 22.5 µM; IC50 (HLA-A*02:02 [9]; [22]): 23 µM; IC50 (HLA-A*02:03 [10]; [22]): 11.5 µM; IC50 (HLA-A*02:06 [11]; [22]): 25.5 µM; IC50 (HLA-A*23:01 [12]): 50.8 µM; IC50 (HLA-A*24:02 [13]): ≥ 70 µM; IC50 (HLA-A*68:02 [7]; [22]): 1.03 µM
ILLLCLIFL | 13.8 | – | 1.12 | 1.53 | 0.145 | 0.624 | 1.48 | – | – | – | – | 30.3 | IC50 (HLA-A*68:02 [16]; [21]): 12.1 µM
VQYRILPMII | – | – | – | – | – | – | – | 34.6 | ≥ 70 | ≥ 70 | 7.85 | – | IC50 (HLA-A*02:01 [8]): 9.33 µM; IC50 (HLA-A*02:02 [9]; [22]): 10.1 µM; IC50 (HLA-A*68:02 [16]; [22]): 21.4 µM; IC50 (HLA-A*02:03 [3]; [22]): 0.606 µM; IC50 (HLA-A*02:06 [4]; [22]): 0.395 µM; IC50 (HLA-A*23:01 [17]): 0.567 µM; IC50 (HLA-A*24:02 [18]): 1.61 µM
TSFYLISIFL | – | – | – | – | – | – | – | – | – | – | – | – | IC50 (HLA-A*11:01; [23]): 8.09 µM; IC50 (HLA-A*31:01 [19]; [23]): ≥ 70 µM; IC50 (HLA-A*33:01): 31.1 µM; IC50 (HLA-A*68:01 [6]; [23]): 1.91 µM
CLRRFIIFL | ≥ 70 | 1.39 | – | – | – | 2.63 | – | – | – | – | – | ≥ 70 | IC50 (HLA-A*02:02 [9]; [21]): 7.11 µM; IC50 (HLA-A*02:03 [10]; [21]): 14.6 µM; IC50 (HLA-A*02:06 [11]; [21]): 10.1 µM; IC50 (HLA-A*31:01 [19]; [21]): 6.65 µM; IC50 (HLA-A*68:02 [16]; [21]): 48.8 µM
LLVPFVQWFV | 8.09 | – | 0.00017 | – | – | 0.476 | 0.161 | – | – | – | – | 45.2 | IC50 (HLA-A*02:03 [10]; [21]): 10.5 µM; IC50 (HLA-A*68:02 [7]; [21]): 0.068 µM
FIIFLFILLL | 7.47 | 0.105 | 0.441 | 0.181 | 1.42 | 0.139 | 0.692 | – | – | – | – | – | IC50 (HLA-A*68:01 [6]; [21]): 3.7 µM; IC50 (HLA-A*68:02 [7]; [21]): 0.737 µM
CLIFLLVLL | 35.7 | 0.101 | 1.52 | 0.659 | 1.04 | 0.682 | 0.998 | – | – | – | – | 34.9 | IC50 (HLA-A*68:02 [16]; [21]): 7.11 µM
AQQFCQYLI | – | – | – | – | – | – | – | 32.4 | 49 | 45.4 | – | – | IC50 (HLA-A*23:01 [17]): 0.085 µM; IC50 (HLA-A*24:02 [18]): 0.313 µM; IC50 (HLA-A*30:02 [20]): 0.748 µM
LQQNNSFII | – | – | – | – | – | – | – | 40.2 | 11.5 | 18.6 | 40.8 | – | IC50 (HLA-A*02:02 [9]; [22]): 11.7 µM; IC50 (HLA-A*02:03 [10]; [22]): 5.17 µM; IC50 (HLA-A*23:01 [12]): 8.91 µM; IC50 (HLA-A*68:02 [16]; [22]): 69.8 µM; IC50 (HLA-A*02:01 [1]; [22]): 1.59 µM; IC50 (HLA-A*02:06 [4]; [22]): 0.423 µM; IC50 (HLA-A*24:02 [18]): 2.36 µM
VQSVLRDISI | – | – | – | – | – | – | – | 15.6 | 6.66 | ≥ 70 | 19.7 | – | IC50 (HLA-A*24:02 [13]): 25.4 µM; IC50 (HLA-A*02:01 [1]; [22]): 0.497 µM; IC50 (HLA-A*02:02 [2]; [22]): 0.078 µM; IC50 (HLA-A*02:03 [3]; [22]): 0.541 µM; IC50 (HLA-A*02:06 [4]; [22]): 0.132 µM; IC50 (HLA-A*23:01 [17]): 3.5 µM; IC50 (HLA-A*68:02 [7]; [22]): 1.29 µM
YQNEVTPEYI | – | – | – | – | – | – | – | ≥ 70 | ≥ 70 | 19.4 | 8.74 | – | IC50 (HLA-A*23:01 [12]): 26.9 µM; IC50 (HLA-A*24:02 [13]): ≥ 70 µM; IC50 (HLA-A*68:02 [16]; [22]): 8.57 µM; IC50 (HLA-A*02:01 [1]; [22]): 0.0081 µM; IC50 (HLA-A*02:02 [2]; [22]): 0.0027 µM; IC50 (HLA-A*02:03 [3]; [22]): 0.00021 µM; IC50 (HLA-A*02:06 [4]; [22]): 0.0026 µM
VQTIVFIWFI | – | – | – | – | – | – | – | 5.13 | 16 | 20.3 | 13.3 | – | IC50 (HLA-A*23:01 [12]): 32.8 µM; IC50 (HLA-A*24:02 [13]): ≥ 70 µM; IC50 (HLA-A*02:01 [1]; [22]): 0.952 µM
FLFILLLCL | 19 | 0.213 | – | 1.57 | 1.78 | 0.664 | 1.47 | – | – | – | – | 26.9 | IC50 (HLA-A*02:02 [9]; [21]): 7.02 µM; IC50 (HLA-A*68:02 [7]; [21]): 1.2 µM
